In patent publication US20250222032A1 (published 2025):

Legend:
[1] = target: dextramers composed of HLA-A*11:01 complexes loaded with the RAS-WT peptide (human); experiment: dual dextramer labeling of TCR T3 transduced T cells, flow cytometry
[2] = target: T1, RAS wild type (KRAS, also HRAS and NRAS) peptide on HLA-A*11:01 (human); experiment: multimer staining
T1 peptide: VVVGAGGVGK

[3] = target: T2, RAS G12C peptide on HLA-A*11:01 (human); experiment: cytokine release
T2 peptide: VVVGACGVGK

[4] = target: T3, RAS G12D (KRAS, also HRAS and NRAS) peptide on HLA-A*11:01 (human); experiment: cytokine release
T3 peptide: VVVGADGVGK

[5] = target: T4, RAS G12D (KRAS, also HRAS and NRAS) peptide on HLA-A*11:01 (human); experiment: cytokine release
T4 peptide: VVGADGVGK

fraction of the T cells that bound the dextramers [1]: 60%
binding result [2]: recognises
binding result [3]: recognises
binding result [4]: recognises
binding result [5]: recognises
B1: TCR T3 (TCR, V domains shown)
Valpha: GQQLNQSPQSMFIQEGEDVSMNCTSSSIFNTWLWYKQDPGEGPVLLIALYKAGELTSNGRLTAQFGITRKDSFLNISASIPSDVGIYFCAGRREGAQKLVFGQGTRLTINP
Vbeta: GAGVSQSPRYKVAKRGQDVALRCDPISGHVSLFWYQQALGQGPEFLTYFQNEAQLDKSGLPSDRFFAERPEGSVSTLKIQRTQQEDSAVYLCASSSTLMGVNIQYFGAGTRLSVL
